From patent US20040170601A1, “Method of improving the growth performance of an animal” (priority 2001, published 2004)
“And” between values parts separate entries of the source, which are not always exact repeats. Equal entries are not always repeated. “Also recorded” adds a separate entry of the source.

Key:
eosinophils [1] = experiment: Example 1: recombinant IL-5 and IL-5 DNA on eosinophil numbers in the blood of pigs; assay type: in vivo; details: recombinant IL-5 100 μg IM on 1 or 2 consecutive days, up to 12 days after treatment
Description: This trial compared the effects of recombinant porcine IL-5 protein and DNA delivered porcine IL-5 on eosinophil numbers in the blood of pigs.
6 pigs per treatment, approximately 7-8 weeks of age (weaners), mean weight of approx. 15 kg.
The experiment was conducted using medicated feed Barastoc EziWean 150 then Bunge Grolean CREEP ad libitum in an experimental environment (PC2 containment facilities).
Recombinant IL-5 was expressed in E. coli and purified using a GST tag system. (See, for example, Smith, D. B and Johnson, K. S. (1988), Gene, 67:31-40). IL-5 was cleaved from the GST tag, purified and tested in bioassays to confirm activity.
IL-5 cDNA (including the signal sequence) was cloned into the pCI DNA vector. DNA was purified using the Qiagen Giga Prep kit (Qiagen Inc. USA).
Total white cells and eosinophils were counted from slides.
Pre-bleed for haematology and dose with all treatments (1, 2, 3, 4, 5 as shown above)
(§1) 8 hrs later, bleed for haematology

eosinophils [2] = experiment: Example 2: high dose and multiple dose IL-5 on eosinophil numbers in blood; assay type: in vivo, pigs; details: rec.IL-5 IM 100 μg x1/x2/x4 or 500 μg x1
Description: This trial compared 2 doses of recombinant IL-5 (100 μg/500 μg) and compared multiple injections (x1/x2/x4) of one dose (100 μg) to elevate eosinophil numbers.
The experiment was conducted using medicated feed Barastoc EziWean 150 then Bunge Grolean CREEP ad libitum in an experimental environment (PC2 containment facilities). Blood total and differential counts were performed using a CellDyn 3700 haematology machine.
as §1

[3] = Example 4: growth performance of pigs administered IL-5 in a commercial piggery; assay type: in vivo; set-up: average weight, higher than saline medicated controls / rate of gain (ROG), increase over saline medicated control / increase in total weight compared to saline medicated control group / increase in weight gain compared to saline medicated control group / increase in average weight compared to saline medicated control group: concentration or dose not given beside the values
Description: This trial evaluated the capacity of IL-5 to improve growth performance and immunity of pigs by comparing the growth rate and health of weaner pigs (28 day old weaners is Day 0 of the trial and the weaner period continued for 42 days) through to the finisher stage (Days 93 to 113) and slaughter (133 days after commencing the trial). The pigs were administered recombinant porcine cytokine, IL-5, and saline was used as a control, with and without standard weaner medicated water and feed in a commercial piggery environment.
40 pigs per treatment mixed in-groups of 20, with 4 replicates containing standard medicated water and feed and 4 replicates without medicated feed or water.
Overall weights for each group at the start of the experiment were equivalent. All pigs at the start of the trial (Day 0) were 28 day old male weaners.
IL-5 was provided in saline to inject one ml/pig.
Weights were measured at the start, weekly and at end of the experiment. The original proposal was designed for measuring weight over the weaner period; however, due to significant growth responses with IL-5 administration the measurement of weight continued to slaughter (pigs were 161 days old).
Recombinant porcine IL-5 was expressed in E. coli and purified using a polyHis tag system as described in Qiagen Inc, USA, instructions and Clontech, USA, Talon Manual instructions. IL-5 was tested for biological activity in a bioassay prior to the start of the experiment.
At the start of the trial, the mean weights and variance for each group were equalised. Thus, the increase in total or average weights witnessed in the IL-5 medicated group was due to IL-5 administration and not simply due to differences between weights at the start of the trial.

[4] = end of the treatment period, 1st trial, IL-5 plus medication

B1: interleukin 5 (protein, UniProt Q9MYM5 22-134, looked up)
Interleukin-5: VENTMNRLVAETLTLLSIHRTLLIGDGNLMISTPVHTNHQLCIEEVFQGIDTLKNQTARGDAVEKLFQNLSLIKEYIDRQKKNCGGERWRVTQFLDYLQVFLGVINTEWTMES
notes: recombinant porcine IL-5 protein expressed in E. coli; + / − = with / without antibiotic medicated feed and water, +p = weaner period only
percentage eosinophils of white blood cells (WBC) (eosinophils [1]): transient (several days)
percentage eosinophils of white blood cells (WBC) (eosinophils [1]; listed as recombinant IL-5): sustained increase in eosinophil numbers in blood over several days; also recorded: two doses being more effective than one dose; also recorded: more effective than DNA in increasing eosinophil numbers
average percentage eosinophil of WBC over 11 days (area under the curve) (eosinophils [2]): increased eosinophil numbers in blood and higher dose and multiple doses were statistically significant and 4 injections of 100 μg (Days 0, 1, 4, 7) being more effective than a single injection of a higher single dose (500 μg)
consistency of growth performance (individual weights at end of weaner period) ([3]; IL-5 medicated group): more consistent than all other groups
average weight, higher than saline medicated controls ([3]; IL-5 medicated group, Week 1): 5.5%
rate of gain (ROG), increase over saline medicated control ([3]; IL-5 medicated group, Week 1): 45.6%
total combined group weight, higher than saline medicated group ([3]; IL-5 medicated group, Week 1): 5.5%
average weight, higher than saline medicated controls ([3]; IL-5 medicated group, Week 2): 6.3%
rate of gain (ROG), increase over saline medicated control ([3]; IL-5 medicated group, Week 2): 19.6%
total combined group weight, higher than saline medicated group ([3]; IL-5 medicated group, Week 2): 6.3%
average weight, higher than saline medicated controls ([3]; IL-5 medicated group, Week 3): 8.8%
rate of gain (ROG), increase over saline medicated control ([3]; IL-5 medicated group, Week 3): 18.2%
total combined group weight, higher than saline medicated group ([3]; IL-5 medicated group, Week 3): 8.8%
average weight, higher than saline medicated controls ([3]; IL-5 medicated group, Week 4): 5.5%
rate of gain (ROG), increase over saline medicated control ([3]; IL-5 medicated group, Week 4): 8.8%
total combined group weight, higher than saline medicated group ([3]; IL-5 medicated group, Week 4): 11.1%
average weight, higher than saline medicated controls ([3]; IL-5 medicated group, Week 5): 7.8%
rate of gain (ROG), increase over saline medicated control ([3]; IL-5 medicated group, Week 5): 11.3%
total combined group weight, higher than saline medicated group ([3]; IL-5 medicated group, Week 5): 13.4%
average weight, higher than saline medicated controls ([3]; IL-5 medicated group, Week 6): 6.8%
rate of gain (ROG), increase over saline medicated control ([3]; IL-5 medicated group, Week 6): 9.1%
total combined group weight, higher than saline medicated group ([3]; IL-5 medicated group, Week 6): 18.6%
average weights during weaner period ([3]; IL-5 un-medicated group vs un-medicated saline controls): consistently small increase in average weights over the un-medicated saline controls except for the last week
increase in average weight compared to saline medicated control group [3, 4]: 7%
increase in total weight compared to saline medicated control group [3, 4]: 18%
increase in weight gain compared to saline medicated control group [3, 4]: 9%
average weights of individual pigs during trial ([3]; medicated): consistently higher average weights than all other groups
increase of average warm carcass weight over the medicated saline control ([3]; medicated): 6 kg
rate of gain over the weaner period ([3]; medicated): consistently increased the rate of gain in the medicated pigs
total weights of all pigs in group over the entire production period ([3]; medicated): significant increase in total weights compared to all other groups
warm carcass weight ([3]; medicated with antibiotics, vs saline controls): increased warm carcass weight compared to saline controls when pigs were medicated with antibiotics
individual final weights ([3]; medicated, all pigs of group): above 90 kg
total combined group weight above saline medicated group ([3]; over 6 weeks for a group of 20 pigs, medicated): 89 kg
rate of gain over the weaner period ([3]; un-medicated): generally higher than the un-medicated saline control
variation in individual pig weights ([3]; up to slaughter): reduced variation in individual pig weights up to slaughter
dressing percentage of carcasses at slaughter ([3]; with or without antibiotics, vs saline controls): improved dressing percentage regardless of antibiotic administration; also recorded: significantly higher % dressing than the respective saline controls
